Assay results: the nanobody polyreactivity screen of Harvey et al. (2022)

Assay: yeast display, Sf9 membrane polyspecificity reagent, FACS + sequencing; frameworks hold sequencing errors
Method in brief: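 Polyreactivity labels are assigned by the sorting gate from which each nanobody was recovered. The gates were low and high (top ~1%), set on anti-HA fluorescence for expression and streptavidin fluorescence for reagent binding. Before sorting, galactose-induced (36–48 hours) yeast display cells were stained for 1 hour at 4 °C with 10% biotinylated, detergent-solubilized Sf9 membrane reagent.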

Sequence	polyreactivity (PSR sort gate)
QVQLVESGGGLVQAGGSLRLSCAASGFIFWRNTMGWYRQAPGKERELVAVITRGGSTYYADSVKGRFTISRDNAKNTVYLQMNSLKPEDTAVYYCAARNDYYKTFSGYDYWGQGTQVTVSS	low polyreactivity
QVQLVESGGGLVQAGCSLRLSCAASGRTFRYYAMGWYRQAPGKERELVAAISWRGGSTYYADSVKGRFTISRDNAKNTVYLQMNSLKPEDTAVYYCAAGILFGHYDYWGQGTQVTVSS	high polyreactivity
QVQLVESGGGLVQAGGSLRLSCAASGSTFLYYTMGWYRQAPGKERELVATISRDGSTKYADSVKGRFTISRDNAKITVYLQMNSLKPEDTAVYYCAAARDSIVYGQYDYWGQGTQVTVSS	low polyreactivity
QVQHVDSGGGLVQAGGSLRLSCAASGSTFSLNAMGWYRQAPGKERELVAAISSGDSTNYADSVKGRFTISRDNAKNTVYLQMNSVKPEDTAVYYCAVEVYYTGFYYSPYAYDYWGQGTQVTVSS	low polyreactivity
QVQHVESGGGLVQAGGSRRLTCAASGYTFYKYAMGWYRQAPGKERELVAAISSSGGSTYYADSVKGRFTISRDNAKNTGYLHMNSLKPVDTAVYYCAAFVYSNDYDYWGQGTQVTVSS	high polyreactivity
QVQLVESGGGLVQAGGSLRLSCAASGFIFSGYAMGWYRQAPGKERELVATISGSGGSTYYADSVKGRFTISRDNAKNTVYLQMNSLKPEDTAVYYCAKRSIVGYRYSGYDYWGQGTQVTVSS	high polyreactivity
QVQLVESGGGLVQAGGSLRLSCAASGSIFLIYAMGWYRQAPGKERELVAAISSGGSTYYADSVKGRFTISRDNAKNTVYLQINSLKPEDTAVYYCATYSTSVAYHLYYWGQGTQVTVSS	low polyreactivity
QVQLVESGGGLVQAGGSLRLSCAASGRTFWWYAMGWYRQEPGKERELVAAITWSGGSTYYADSVKGRFTISRDNAKNTVYLQMNSLKPEDTAVYYCAAYVHNKYDYWGQGTQVTVSS	low polyreactivity
QVQLVESGGGLVQAGGSLRLSCAASGSTFSHYAMVWYRQAPGKERELVATITGTGVRTYYADSVKGRFTISRDNAKNTVYLQMNSLKPEDTAVSYCAVPPSKRGAQAQPWMDYWGQGTQVTVSS	low polyreactivity
QGQLVESGGGLVQAGGSLRLSCAASGSTFWLNAMGWYRHAPGKERELVAVITWSGDGTYYADSVKWRFTISRDNAKNTVYVQMNSLKPEDTAVYYCAKGFERYPWYDYWGQGTQVTVSS	low polyreactivity
QVQLVDSGGGLVQAGGSHRLSCAASGIIFPTYDMGWYRPAPGKERELVAAITWSTGSTTYADSVKGRFTISRDNAKNTVYLQMNSLKPEDTAVYYCNKDSEGSGGEFDDWGQGTQVTVSS	low polyreactivity
QVQLVESGGGLVQAGGSLRLSCAASGSIFDLYTMGWYRQAPGTERELVAAISRSGGSTYYADSVKGRFTISRDNAKNTVYLQMNSLKPEDTAVYYCAARGPYRPPHGDAYYTYGYWGQGTQVTVSS	high polyreactivity
QVQLVESGGGLVQAGGSLRLSCAASGSIFAYYAMGGYRQAPGKERELVAAITSGDSTYYADSVKGRFTISRDNAKNTVYLQMNSLKPEDTAVYYCAADHIWFYFYLYDYWGQGTQVTVSS	low polyreactivity
QVQLVESGGGLVQAGGSLRLSCAASGLTFFRYARGWYRQAPGKERELVATITGRGGSTYYADSVKGRFTISRDNAKNTVYLQMNSLKPEDTAVYYCAAYYSRFRYLHRDYWGQGTQVTVSS	high polyreactivity
QVQLVESGGGLDQAGASLRLSCAASGSIFVPYTMGWYRQAPGKERELVASISYSGGTTYYADSVKGRFTISRDNAKYTVYLQMNSLKPEDTAVYYCAADWDDSYSYRRYRHYDYWGQGTQVTVSS	low polyreactivity
QVQLVESGGGLVQAGGSLRLSCAASGSTFGLYARGWYRQAPGKERELVAAISGGRTYYADSVKGRFTISRDNAKNTVYLQMNSLKPEDTAVYYCAADYNYYWGQGTQVTVSS	high polyreactivity
QVQLVESGGGLVQAGGSLRLSCAASGSTFGLYGMGWYRQAPGKERELVAAITYSGGGTYYADSVKGRFTISRDNAKNTVYLQMNSLKPEDTAVYYCAAEYYSSITGWYYYWGQGTQVTVSS	low polyreactivity
QVQLVESGGGLVQAGGSLRLSCAASGITFEGYAMGWYRQAPGKERELVAAIRSSGTSTYYADSVKGRFTISRDNAMNTVYLQMNSLKPEDYAVYYCNRARSSSRYDYWGQGTQGTVSS	low polyreactivity
QVQLVESGGGLVQAGGSLRLSCAASGLIFQRNTMGWYRQAPGKERELVAAISRSGGSTYYADSVKGRFTISRDNAKNTVYLQMNSLKPEDTAVYYCAALIFRHRGKDDDYWGQGTQVTVSS	high polyreactivity
QVQLVESGGGLVQAGGSLRLSCAASGFIFSDNAMGWYRQAPGKERELVSAITDDGDTTYYADSVKGRFTISRDNAKNTVYLQMNSLKPEDTAVYYCATEIEDDESSGPYYYVGYGYWGQGTQVTVSS	high polyreactivity
QVQLVESGGGLVQAGGSLRLSCAASGLTFGFNAMGWYRQAPGKERELVAVIDSGGSTNYADSVKGRFTISRDNAKNTVYLQMNSLKPEDTAVYYCAADYTGFYPDGSDVDYDYWGQGTQVTVSS	low polyreactivity
QVQLVESGGGLVQAGGSLRLSCAASGFIFRYYAMGWYRQAPWKERELVASITRSGGRTYYADSVKGRFTISRDNAKNTVYLQMNSLKPEDTAVYYCAARHYRSEYEYDYWGQGTQVTVSS	high polyreactivity

Sequence	polyreactivity (PSR sort gate)
QVQLVESGGGLVQAGGSLRLSCAASGSIFIPYAMGWYRQAPGKETELVAAISSSGSSYYADSVKGRFTISRDNAKNTVYLQMNSLKPEDTAVYYCAAERHYSYSSYDYWGQGTQVTVSS	low polyreactivity
QVQLVESGGGLVQAGGSLRISCAASGSIFLYNDMGWYRQAPGKERELVAAITSTGNTNYADSVKGRFTISRDNAKNTVYLQMNSLNRKRPRSITALNVSCTSVVVGYDYWGQGTQVTVSS	low polyreactivity
QVQLVVSGGGLVQAGGSLRLRCAASGRTFVRYAMGWSRQAPGKERELVARITTRGTSTYYADSVKGRFTISRDNAKNTVYLLLNSLKPEDTAVYYCNKVRTFRDKSRYDYWGQGTQVTVSS	low polyreactivity
QVQLVDSGGGLVQAGGSLRLSCAASGRIFGRYAMGWSRQAPGKESELVASITYRGGGTYYADSVKGRFTISRDNAKNTVYLQMNSLKPEDTAVYYCNAYFAGVLRRNYRGQGTQVTVSS	high polyreactivity
QVQLVESGGGLVHAGGSLRLSCAASGRTLWGYVMGWYREAPGKERELVAVITASGGSTYYADSVNGRFTISRDNAKNTVYLQMYSLKPEDTAVYYCNADSRAERYFWSFVENDYWVQGTQVTVSS	low polyreactivity
QVQLVESGGGLVQAGGSLRLSCAASGRIFPPYAMGWYRQAPGKERELVAAISSSTTSTYYADSVKGRFTISRDNAKNTVYLQMNSLKPEDTADYYCAATGKGSYGYWGQGTQVTVSS	low polyreactivity
QVQLVESGGGLVQAGGSLRLSCAASGRTFRGYAMGWSRQAHGKEREFVATISSRGGSTYYADSVKGSFTISRDNAKHTVYLQMNSLKPEDTAVYYCAAKRRAKTGYRYDYWGQGTQVTLSS	high polyreactivity
QVQLVESGGGLVQAGGSLRLSCAASGSIFGYAMGWYRQAPGKERELVAAIRWGGGSTYYADSVKGRFTISRDNAKYNVYLQMNSLKPEDTAVYYCAARVGRQWYDYWGQGTQVTVSS	high polyreactivity
QVQLVESGGGLVQAGGSLRLSCAASGITFKFYAMGWYRQAPGKEREWVATISWSGGITYYADSVKGRFTISRDNAKNTVYLQMNSLKPEDTAVYYCAADGPFTPRYYYWGQGTQVTVSS	low polyreactivity
QVQLVESGGGLVQAGGSLRLSCAASGSTFESNAMGWYRQAPGKERELVASISGSGGSTFYADSVKGRFTISRDNAKNTVYLQMNSLKPEDTAVYYCAAYKEPYYEEYGYWGQGTQVTVSS	low polyreactivity
QVQLVESGGGLVQAGGSLRLSCAASGFTLFFYAMGWYRQAPGKEREFVASIRTSGGSTYYADSVKGRFTISRDNAKNTVYLQMNSLKPEDTAVYYCAARPLYGYGYWGQGTQVTVSS	high polyreactivity
QVQLVESGGGLVQAGGSLRLSCAASGITFYGYAMGWYRQAPGKERELVARISSGGTTKYADSVKGRFTISRDNAKNTVYLQMNSLKPEDTAVYYCAVGGYWWYYGFYYWGQGTQVTVSS	high polyreactivity
QVQLVESGGGLVKAGGSLRLSCAASGRTFGWYVMGWYRQAPGKEMELVAAISLRGGTTYYADSVKGRFTISRDNAKNTVYLQMNSLNPEDTAVYYCAIAGIRHVTCKFKGYHFGYWGQGTQVTVSS	low polyreactivity
QVQLVESGGGLVQAGGSLRLSCAASGFIFGPYTMGWYRQAPGKERELVAAINNSGSTYYADSVKGRFTISRDNAKNTVYLQMNSLKPEDTAVYYCAAEPIIFVRYDYWGQGTQVTVSS	low polyreactivity
QVQLVESGGGLVQAGGILRLSCAASGSTFVPNTMAWYRQAPGKERELVAAITYSGGSTYYADSVKGRFTISRDNAKNTVYLQMNSLKPEDTAVYYCAAEGTTWYYDMDYWGQGTQVTVSS	low polyreactivity
QVQLVESGRGLVQAGGSLRLSCAASGITLYTNAMGWYRQAPGKEREFVAGISWNGGRTYYADSVKGRFTISRDNAKNTVYLQMNSLKPEDTAVYYCNARFVYRYKYYYWGQGTQVTVSS	high polyreactivity
QVQLVESGGGLVQAGGSLRLSCAASGSTLIEYAKGWYRQAPGKERELVARISKSGDSTYYADSVKGRFTISRDNAKNTVYLQMNSLKPEDTAVYYCAKYHRDGFYRSYWFRYDYWGQGTQVTVSS	low polyreactivity
QVQLVESGGGLVQAGGSLRLSCAASGRTFPYYAMGWYRQAPGKERELVAAITTNDGDTYYADSVKGRFTISRDNAKNTVYLQMNSLKPEDTAVYYCAADSGSTSEYEYWGQGTQVTVSS	low polyreactivity
QDQLVESGGGLVQAGGSLRLSCAASAFTFGRNAKGWYRQATGKERELVATITWSGGSTYYADSVKGRFTISRDNAKNTVYLQMNSLKPEDTAVYYCAKQRRYWGQPSRAYEFNYWGQGTQVTVSS	high polyreactivity
QVQLVESGGGLVQAGGSLRLSCAASGRTFFYNARGWYRQEPGKERELVAAIDWSGDSTYYADSVKGRFTISRDNAKNTVYLQMNSLKPEDTAVYYCAARRKNRRDYDYYYWGQGTQVTVSS	high polyreactivity
QVQLVDSGGGLVQAGGSLRLSCASSGRIFHGYAMGWYRHAPGKERELVAAIDEDGGSTYYADSVKGRFTISRDNAKNTVYLQMNSLKPEDTAVYYCATDALYTYGYDYWGQGTQVTVSS	low polyreactivity
